Measured values: the DeepSol protein solubility set

Test: soluble on expression in E. coli; label from the status in PepcDB or PDB records

| Sequence | soluble on expression in E. coli |
| --- | --- |
| GSRPATPPVTPPSREGHVADLDRFPQDLRVYAMKAGADRQLLPFTEQAAQDARWNRRFFAPWRMTRISVPVKDVAAPFGTDGRPRGYAENLLPWDVTRWGALASGAALDLYPSQAWKGIVVSNSALREVPTLRPMFTAPTRAGQGYPFDMFQRTAVWMGTPVFVGHATADRAWLYVETAFAAGWMPAADVARVDDAFMTRYESGSLAAILRDDTSLNGADGTHLATAHIGTVLPLSGASQVGRTVLVPVRAPEGHAVVVPVLLTSGEAAQKPVPLTPGNMAELGNRMMGQPYGWGGLYEDRDCSSTLRDLFTPFGLWLPRNSASQAKAGRYVDIAKLDADDKEARIVAEGVPFMTLLWLRGHITLYLGLHEGQAAMFHNMWGIRTHRGGVEGRYVLGRAVVTSTRPGLDVPGNDNADGLLGRMQGMSILPGGAQ | soluble |
| MSDAFTDVAKMKKIKEDIRAHEGQLVELTLENGRKREKNKIGRLIEVYSSLFIIEYSDSSDTPGAIDNSYVESYTYSDILTEKTLIRYLD | not soluble |
| MSKATTPGDQPKVSEMDFYQLLGVEKMASEAEIKSAYRKLALKYHPDRNPNDAHAQEEFKKVSIAYSVLSDPNKRRQYDVSGPSENQLDFEGFDVSEMGGVGRVFGALFSKLGVPIPTQIVPKVLAQARHICMGQECDVQARQLPPGETVTSSVSKQHAHFYEINIQEEHRKNGVAIICKSSSSKFKLVLFDKEGGVRMIQESGKRGKAGTQADMFFVPYNVANIQEFNAMKYHLEDKETPLAFHYLDSFEMQTATLLETRKHYIAVYGDNWISDVKYSITFLPVEPSAVEQLNEIQDTEKSISIIKKEMLDFQREFTEAKRKYDEAVAKLKVQDDTILKALAHREELYNEVLQKSQEPYNKKVSPSKSSGGLLGWFK | not soluble |
| MGSDKIHHHHHHMGGIWMSSAKTLEEVISKISGVISAKVIEEDGQPREIHVIADPSRNPKQIVRDIETVALASLGMKIDRRIISVAQLSQGRFPSSQTYEITSIEVKNLDRKKQVKVTIHNPLEDEDMVGESAGPGTSTNLPRLVGEAVIEAFNPDCPVSVDDVQKVFLAGREFVLVHLTIQDEDRERTEVGVAPLEGDFLKSVATATLKVVKDLT | not soluble |
| MAFNKVKIVKGSGGWGGPLIIEPTEKKNKVVYVTGGAKPETAVKIAELTGCELIDGFSQGVKDDEIACVIINCGGTLRCGIYPQKKIPTINIMKTGKSGPLAMFIKEDIYVSGVKPTNVEQ | not soluble |
| MREQISVLTQNLSQTIVGKDEAIRLVLVALLSGGHALLEDVPGVGKTLLAKSLARSINGKFQRVQCTPDLLPTDITGTNIWNPSSREFEFLPGPAFANILLADEINRATPRTQAALLEVMEEKQVTVDGETRLVPHPFFVIATQNPIEYQGTFPLPEAQLDRFALSLSLGYPSEAEELKMLQRQQNPEAIAVGDLESCISLEEVEALQKAVRQVKLTEDLQQYLLRLVRASRTDEDVTLGVSPRGTTALQRATQAFAFLEERDYAIDDDVKFVAPHVLAHRLIPASGKDPKAILQRLLDSVPILEHHHHHH | not soluble |
| MVLEKIEPAQEEHEKYHSNVKELSHKFGIPNLVARQIVNSCAQCQQKGEAIHGQVNAELGTWQMDCTHLEGKIIIVAVHVASGFIEAEVIPQESGRQTALFLLKLASRWPITHLHTDNGANFTSQEVKMVAWWIGIEQSFGVPYNPQSQGVVEAMNHHLKNQISRIREQANTIETIVLMAVHCMNFKRRGGIGDMTPSERLINMITTEQE | soluble |
| MSLLYTTPRLNISAFLFMKQQLSFLFLLSGLLAGCSSTPNPNLEQINQFTGGKTIGDATSFYWYTESFQKPSSASDYVTSGDYGSYQTSYRWEEGQVREIRREGEHLDGKKLVPFRVHIRFSKEGEAVYQQYRLGGKVLPMNEEQLAHYVLQAKAVAEATKEQDKQGLELIQGYWNGKTFETCQGVEYQRVEFNQSLPSFVFNRLASIESYVAFLGKIRNGKVHIDELLLLDDAGHDCVKEPELLDEGHHHHHH | soluble |
| MSLFINMYRQLLSLPLSALVKNNPIPANPIEELSLNIHQPIVYVLPYTSQTDFVIFRRNCLALGLPDPAEKNEINGVKLPRYVYLDEGRRIFKSKGAKDETTTIFNKYLELHRTSESLDVQLIPVSVLWGRSPGQEDKSDLPNLRLLNGIQKTFAAIWFGRDTFVRFSQAVSLRYMVVEHGSDEKIAQKLARVAKMHFAKQRISATGPRLPNRQAMFNKLLQSEAIRRAIEDEAKSKNISIEKAQKEAYKILDEIAADVSHSSLRAVDRFLRWLWNKLYSGINVQNSNRVRKLALEGHEIVYVPCHRSHIDYLLLSYVLYHQGLVPPHIAAGINLNFWPIGRMFRSWGAFFIRRTFKGNRLYSAIFREYLSELFHRGYSVEYFIEGGRSRTGRLLAPKTGMMSMTLQALQHSQTRPISIVPVYVGYEHVLEVDTYAKELRGAAKEKENAGLVLRVIKKLRNLGQGFVNFGEPITLSNYLSQHFPDWKEQNHEEKPQWFTPAVNNISKQVMININKAAAVNSMNLVGTALLSSRQRALSREQLLEQLSSYQQLLQNVPYSTDVVLPNVTPQAMLEHVLALDRIGVLIEKDNFGEIVRLERSSAVLMTYYRNNIQHLFVLPSLVASIILHYEAIQKDLLLDAIRKIYPFLQGELFLHFNEDELNVQIHQIINEFARQSVINSNDNFLSINKSKVRILQLWSAGMLEILQRYYITVTILQKQPAISRAELEKESQLVAQRLSVLHGINAPEFFDKAVFSSFIANLKEQRYFDESGYTVLDKIEELASTLSHLISTEICLTVKGTIEKSEDLSSEGHHHHHH | soluble |
| MVLEHCRDAIESHGVETDIISLRGMKIESCRACLSCAKKHRCRIDDGLNDIIDRIRDSEGFIVATPVYFGTARGDLMAALQRIGMVSRASDGFLSWKVGGPIAVARRGGHTATIQELLMFYFINDMIVPGSTYWNMVFGWAPGEVEDDSEGIETIRRFGENVAELIKRINGGSLEHHHHHH | not soluble |
| MQPDNYFILAQKPITEPSASVMGQVKNDVKKEEPKNEEKKPGDENKNPAAVGAEGAGAAEKPQDKSQKPFPEIKMPTESMKKKKNTDNEIDKRKKMKTGFYQEKSDEDDTLEKIESLKVEQSDKTKKSQKKKLTLENGEKKV | not soluble |
| ATPAPAAEMPGITIISASQTGNARRVAEALRDDLLAAKLNVKLVNAGDYKFKQIASEKLLIVVTSTQGEGEPPEEAVALHKFLFSKKAPKLENTAFAVFSLGDTSYEFFCQSGKDFDSKLAELGGERLLDRVDADVEYQAAASEWRARVVDALKSRAPVAAPSQSVA | soluble |
| SNAMNFFTSPFSGIPLDQQVTNPNIIVGKHSYYSGYYHGHSFDDCVRYLHPERDDVDKLVIGSFCSIGSGAVFMMAGNQGHRSDWISTFPFFYQDNDNFADARDGFTRSGDTIIGHDVWIGTEAMIMPGVKIGHGAIIASRSVVTKDVAPYEVVGSNPAKHIKFRFSDVEIAMLLEMAWWNWPESWLKESMQSLCSSDIEGLYLNWQSKART | soluble |
| MSLAPQRCHRFQSSAYRSNQWRYRGRCDSIQFAVDRRVFIAGLGLYGSSSGKAEYSVKIELKRLGVVLAQNLTKFMSDGSSNTFPVWFEHPVQVEQDTFYTASAVLDGSELSYFGQEGMTEVQCGKVAFQFQCSSDSTNGTGVQGGQIPELIFYAEGHHHHHH | soluble |
| GPGSMTSPAQAQVHSAPSRHAHTSILSQQMLSTPAGHPVSQPDTSQAAPDAPVWRPTTVPWKPVDTQQSACSALPAKTDDAIAAHSLQWERDAAVGNPNDESGRVVSQAFAFPRWMGPPALTSTATSREEGDSPTATVPSMEERWSTFQRLAQASEATFRSMSEATARQHADVTAHQKEIAAYQESQRQLTLQQQQRLDSLTRECAQLRQTEASTKEVVAHQVERLVALESELQTTRVQLSEIRLAQAQCVEERKRLQQACKMHEVHTSELQASLQFADEVVRSMRQTVAACEREKNEALMQQYSNFESYRNNLIAAYDKRAAEARDEFAKRVESLQAGMLETVAKREEQLKASWEETATRMRHEYDELVRLGQQRRAAMDTELRERKEQLERDKEFMRVQQREEADMMEQRFRAREETLLDDIARRERELREREAVLRAAQAQQEVDVQRRLQAREAELRAAHDAALKRMADQAAAEREKLSENFMERLQQLSNAHMQQERELERMHREKEREMAQRYRLSGIDGGDRGEVRDRRATEYALASPSMAKEALLKKFETVEQRQRERSDKLRSAFSAQENELQPPL | soluble |
| MSLGIPLSQLIVESPKPLSSGITGLDEILNLGFQARSIYEIFGPPGIGKTNFGIQLVCNSLEGIQQSEINDDKILWIETFQEMPINILRERFQKFKIVEENVKRVRITKFGQLLYFFQNLFKLSQSVRYKLVIIDGFSQLVCDHLCTLSKRGGGMIDKTIHELKCRHLILIFTVMTKYTHSTGSTIIVLNDCMNTAFQSNEFESLEEYYEILDDGSNFFVNSNNERRKNNVHILKSALVANIAMGSKDSTWEVFLRDRIGLFRDWNEQVDETVFVKSKRVKASSSQSNEGCTTIKEMRINKRNFENLRIAIVFNLHGEDRKREGRNLKRSRSSDDRNYIVKFDFDKATGQLRDIIDLKPDTANIASFPTLSTSSSSCSQVFNNIDSNDNPLPNAEGKEEIIYDSEG | not soluble |
| MLAIFHEAFAHPPEELNSPASEKCSKQPKLPEETLNDFLLRYPLNTFSMSFGQAAVLAYVRPSASFSIHQRLFCGFDDIYCLFFGSLNNLCQLNKQYGLTKTTNEAMFVIEAYRTLRDRGPYPADQVVKDLDGSFSFVVYDSKAGSVFTALVLIHKISPRLLELNFNGSDGGVKLYWGIAADGSVVISDDLDVIKEGCAKSFAPFPTGCMFHSEGGLMSFEHPMNKIKAMPRVDSEGVLCGANFKVDVYNRVNSIPRRGSEANWSL | soluble |
| GRGSEHLTIGFKVENAHDRILKTIKTHKLKNYIKESVNFLNSGLTKTNYLGSSNDNIELVDFQNIMFYGDAEVGDNQQPFTFILDTGSANLWVPSVKCTTAGCLTKHLYDSSKSRTYEKDGTKVEMNYVSGTVSGFFSKDLVTVGNLSLPYKFIEVIDTNGFEPTYTASTFDGILGLGWKDLSIGSVDPIVVELKNQNKIENALFTFYLPVHDKHTGFLTIGGIEERFYEGPLTYEKLNHDLYWQITLDAHVGNIMLEKANCIVDSGTSAITVPTDFLNKMLQNLDVIKVPFLPFYVTLCNNSKLPTFEFTSENGKYTLEPEYYLQHIEDVGPGLCMLNIIGLDFPVPTFILGDPFMRKYFTVFDYDNHSVGIALAKKNL | soluble |
| MAHHHHHHMKYRYDEKIHKGLYSEDNSTSMNNRYNNNESTYKMPKEILNRHEKIDLNSLPIDEEIINNLKIILNIEKLYMYQYIIYNEILKNSKHLLIYNKTGTGKTLSYLLPLIQKLINDKFDCNKKVLIITQNIYLCKQLYIYILSIYPTLNVCILSDEKESYNMNNNINNDIIVNIKRNNINPNDKENNDMCDEKYGIHFYLCTPNKLEYFIKNYKNKSRNDKNVMNNILNNINTIVIDEFDYIVEYRKNILNFFFKKDLFNEIHNNNNIRDKNRFNHDIFNKSNYNIYLFTANINEVIKKKIYEHLNGFVFFDFINGIKEHIQKQVAEQHNFNIDVLKNSENVVQLLNKENKNESLCNLNITHFVCKINSASKYKYVCYFLEEFFFHKQKISQKVYNDMVYDEYDKLNYRNMIPMEENKFVNNSEKEGNMKRSNADKINKCIIFANTKEEVEKLYEISLLKPHAVMMHSELLTIQKNENINLFKVGKKNVLITTDIISRGLDIDNVIFILNYSPPTSPNDYIHRSGRTGRGKEKGICLTMYHKYEYRNVDKIMKYTKNKFEVILCPKVEDVYKFSVDKLVENVMKIAPEKYEFFNEKSKELLKKHNTKIIAQILSILLKFDKKSFDVSLLSGKKNYVAVLIKDPFFEVIKNRDDIINIIKVITGNKIITTIIGDVAKCDEGFIVDISSSHVNKIISLFNSSNFEYKSKGLEINTLIELPPIIKEKKNIIRRKKKAPWIT | not soluble |
